Source: publication PMC7647119

Target: T1, MADS29-His (Oryza sativa) (UniProt Q6H711)
T1 sequence: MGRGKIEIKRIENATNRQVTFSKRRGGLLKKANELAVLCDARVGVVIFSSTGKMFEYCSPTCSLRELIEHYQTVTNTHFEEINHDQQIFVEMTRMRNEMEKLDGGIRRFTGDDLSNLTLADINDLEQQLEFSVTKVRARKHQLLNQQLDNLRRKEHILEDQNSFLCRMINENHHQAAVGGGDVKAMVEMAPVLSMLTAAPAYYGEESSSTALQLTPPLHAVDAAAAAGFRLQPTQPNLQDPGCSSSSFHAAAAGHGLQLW
Experiment: EMSA
Conditions: LightShift Chemiluminescent EMSA Kit per manufacturer; buffer, salt, pH and temperature not stated

Sequence | binding
ATTTTGCTCATTTGGTATAGATCTTTCTTACATATATAAGACTGATCTCTATAGTGGTGA (double strand) [POsAsp1 -1412 CArG probe] | binds
TCTATAGACTAGTCAGCATTTTTTTTAGCTCCATATTTGGATTTGTCAACTTCAGAAAAG (double strand) [POsAsp1 -770 CArG probe] | binds
